Test results as given in publication PMC9006656.
pKd: −log10 of the molar value.

How the values were obtained:
[1] = target: wild-type human IgG1 Fc displayed on the CHO cell surface (human); assay: flow cytometry on cells; Fc variants displayed on CHO-T cells as monoclonal populations; stained with monomeric FcγRIIIa V158 on fluorescent streptavidin (50 nM in Fig. 7A) in flow buffer at pH 6.5; percent of cells binding
[2] = target: GST-tagged human FcRn-β2m (human) (UniProt P55899)
[3] = target: hu4D5 full-length human IgG1 antibody with wild-type Fc (human); assay: BLI; same FAB2G experiment at pH 6.5, steady state analysis: equilibrium responses fit to a Langmuir isotherm; apparent
[4] = target: hu4D5 full-length human IgG1 antibody with acid-Fc (human); assay: as above
[5] = target: hu4D5 full-length human IgG1 antibody with wild-type Fc (human); assay: BLI; same FAB2G experiment at pH 7.4, steady state analysis: equilibrium responses fit to a Langmuir isotherm; apparent
[6] = target: hu4D5 full-length human IgG1 antibody with acid-Fc (human); assay: as above
[7] = target: hu4D5 full-length human IgG1 antibody with wild-type Fc (human); assay: BLI; antibody captured on anti-CH1 FAB2G tips; FcγRIIIa V158 (62.5-2000 nM) or F158 (156-5000 nM) in solution, pH 6.5; 1:1 model, full association and initial 5 s of dissociation; Kd = koff/kon; observed values
[8] = target: hu4D5 full-length human IgG1 antibody with acid-Fc (human); assay: as above
[9] = target: hu4D5 full-length human IgG1 antibody with wild-type Fc (human); assay: BLI; antibody captured on anti-CH1 FAB2G tips; FcγRIIIa V158 (62.5-2000 nM) or F158 (156-5000 nM) in solution, pH 7.4; 1:1 model, full association and initial 5 s of dissociation; Kd = koff/kon; observed values
[10] = target: hu4D5 full-length human IgG1 antibody with acid-Fc (human); assay: as above

UniProt P55899, sequence (P55899 24-365, chain 1 of 2): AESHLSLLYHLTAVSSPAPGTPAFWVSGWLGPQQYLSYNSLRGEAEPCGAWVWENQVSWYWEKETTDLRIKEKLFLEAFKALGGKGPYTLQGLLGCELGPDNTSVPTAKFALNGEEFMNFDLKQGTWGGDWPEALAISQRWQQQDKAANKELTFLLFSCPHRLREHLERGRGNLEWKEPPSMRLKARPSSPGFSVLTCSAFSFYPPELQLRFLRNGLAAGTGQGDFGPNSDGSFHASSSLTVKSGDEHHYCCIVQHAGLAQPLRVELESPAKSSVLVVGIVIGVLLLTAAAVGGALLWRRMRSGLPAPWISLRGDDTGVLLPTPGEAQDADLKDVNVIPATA
UniProt P55899, sequence (P61769 21-119, chain 2 of 2, further chain): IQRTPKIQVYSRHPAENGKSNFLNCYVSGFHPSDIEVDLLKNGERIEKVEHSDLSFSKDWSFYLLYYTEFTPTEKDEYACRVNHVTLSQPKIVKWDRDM
wild-type human IgG1 Fc displayed on the CHO cell surface (human), sequence (P01857 1-350): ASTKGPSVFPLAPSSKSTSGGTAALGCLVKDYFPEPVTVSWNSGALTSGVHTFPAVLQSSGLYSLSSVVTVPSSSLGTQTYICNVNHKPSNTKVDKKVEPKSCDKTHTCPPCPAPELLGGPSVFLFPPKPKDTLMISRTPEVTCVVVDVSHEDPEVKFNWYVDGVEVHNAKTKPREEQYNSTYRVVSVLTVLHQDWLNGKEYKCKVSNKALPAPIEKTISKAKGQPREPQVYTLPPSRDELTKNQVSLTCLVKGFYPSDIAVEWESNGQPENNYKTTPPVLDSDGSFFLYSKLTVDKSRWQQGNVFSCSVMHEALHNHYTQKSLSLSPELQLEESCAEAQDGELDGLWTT

**Q.** How did the ratio of the percent of cells binding at pH 6.5 versus the percent binding at pH 7.4 [1] turn out when “biotinylated FcγRIIIa (allele V158) monomerically bound to fluorescent streptavidin (receptor)” was run?
**A.** 1

**Q.** How did the serum beta elimination half-life (t1/2) in homozygous Tg32 mice expressing human FcRn, 2 mg/kg intraperitoneally [2] turn out when “hu4D5 full-length human IgG1 antibody with wild-type Fc” was run?
**A.** 209 h

**Q.** Which serum beta elimination half-life (t1/2) in homozygous Tg32 mice expressing human FcRn, increase as compared to wild-type [2] does the source give for “hu4D5 human IgG1 antibody with the M252Y/S254T/T256E (YTE) substitutions” here?
**A.** 1.4 fold

**Q.** How did the pKd [3] turn out when “human FcγRIIIa F158, AVI and His tagged, biotinylated (from UniProt P08637 17-254) (receptor)” was run?
**A.** 6.38

**Q.** And the pKd [4]?
**A.** 6.22

**Q.** What about the pKd [5] of the same substance?
**A.** 6.29

**Q.** What about the pKd [6] of the same substance?
**A.** 5.96

**Q.** What about the pKd [7] of the same substance?
**A.** 6.40

**Q.** And the koff [7]?
**A.** 0.119 s⁻¹

**Q.** What about the kon [7] of the same substance?
**A.** 300000 M⁻¹ s⁻¹

**Q.** What about the pKd [8] of the same substance?
**A.** 6.27

**Q.** And the koff [8]?
**A.** 0.177 s⁻¹

**Q.** What about the kon [8] of the same substance?
**A.** 340000 M⁻¹ s⁻¹

**Q.** What about the pKd [9] of the same substance?
**A.** 6.32

**Q.** What about the koff [9] of the same substance?
**A.** 0.134 s⁻¹

**Q.** What about the kon [9] of the same substance?
**A.** 280000 M⁻¹ s⁻¹

**Q.** And the pKd [10]?
**A.** 6.04

**Q.** What about the koff [10] of the same substance?
**A.** 0.226 s⁻¹

**Q.** And the kon [10]?
**A.** 250000 M⁻¹ s⁻¹
